{"source": "patent US20230365703A1", "about": "(SHANGHAI LYN CREST ENTERPRISE MANAGEMENT, published 2023)", "binders": {"B1": {"name": "LCB-018 (bispecific antibody)", "heavy": "not shown", "chain 1": "not shown", "chain 2": "WELKKDVYVVELDWYPDAPGEMVVLTCDTPEEDGITWTLDQSSEVLGSGKTLTIQVKEFGDAGQYTCHKGGEVLSHSLLLLHKKEDGIWSTDILKDQKEPKNKTFLRCEAKNYSGRFTCWWLTTISTDLTFSVKSSRGSSDPQGVTCGAATLSAERVRGDNKEYEYSVECQEDSACPAAEESLPIEVMVDAVHKLKYENYTSSFFIRDIIKPDPPKNLQLKPLKNSRQVEVSWEYPDTWSTPHSYFSLTFCVQVQGKSKREKKDRVFTDKTSATVICRKNASISVRAQDRYYSSSWSEWASVPCS"}, "B2": {"name": "Anti-GPC3 monoclonal antibody codrituzumab (antibody, human IgG1, kappa, V domains shown)", "VH": "QVQLVQSGAEVKKPGASVKVSCKASGYTFTDYEMHWVRQAPGQGLEWMGALDPKTGDTAYSQKFKGRVTLTADKSTSTAYMELSSLTSEDTAVYYCTRFYSYTYWGQGTLVTVSS", "VL": "DVVMTQSPLSLPVTPGEPASISCRSSQSLVHSNRNTYLHWYLQKPGQSPQLLIYKVSNRFSGVPDRFSGSGSGTDFTLKISRVEAEDVGVYYCSQNTHVPPTFGQGTKLEIKR", "notes": "also called GC33; anti-GPC3 mAb"}, "B3": {"name": "Anti-CD38 monoclonal antibody Felzartamab (antibody, human IgG1, lambda, V domains shown)", "VH": "QVQLVESGGGLVQPGGSLRLSCAASGFTFSSYYMNWVRQAPGKGLEWVSGISGDPSNTYYADSVKGRFTISRDNSKNTLYLQMNSLRAEDTAVYYCARDLPLVYTGFAYWGQGTLVTVSS", "VL": "DIELTQPPSVSVAPGQTARISCSGDNLRHYYVYWYQQKPGQAPVLVIYGDSKRPSGIPERFSGSNSGNTATLTISGTQAEDEADYYCQTYTGGASLVFGGGTKLTVLG"}}, "key": {"[1]": {"biological_target": "T1, IL12 receptors on H_IL12 Reporter 293 cells (UniProt P42701 24-662; Q99665 24-862, limits assumed)", "T1 sequence (Q99665 24-862 limits assumed, chain 2 of 2, other chains not shown)": "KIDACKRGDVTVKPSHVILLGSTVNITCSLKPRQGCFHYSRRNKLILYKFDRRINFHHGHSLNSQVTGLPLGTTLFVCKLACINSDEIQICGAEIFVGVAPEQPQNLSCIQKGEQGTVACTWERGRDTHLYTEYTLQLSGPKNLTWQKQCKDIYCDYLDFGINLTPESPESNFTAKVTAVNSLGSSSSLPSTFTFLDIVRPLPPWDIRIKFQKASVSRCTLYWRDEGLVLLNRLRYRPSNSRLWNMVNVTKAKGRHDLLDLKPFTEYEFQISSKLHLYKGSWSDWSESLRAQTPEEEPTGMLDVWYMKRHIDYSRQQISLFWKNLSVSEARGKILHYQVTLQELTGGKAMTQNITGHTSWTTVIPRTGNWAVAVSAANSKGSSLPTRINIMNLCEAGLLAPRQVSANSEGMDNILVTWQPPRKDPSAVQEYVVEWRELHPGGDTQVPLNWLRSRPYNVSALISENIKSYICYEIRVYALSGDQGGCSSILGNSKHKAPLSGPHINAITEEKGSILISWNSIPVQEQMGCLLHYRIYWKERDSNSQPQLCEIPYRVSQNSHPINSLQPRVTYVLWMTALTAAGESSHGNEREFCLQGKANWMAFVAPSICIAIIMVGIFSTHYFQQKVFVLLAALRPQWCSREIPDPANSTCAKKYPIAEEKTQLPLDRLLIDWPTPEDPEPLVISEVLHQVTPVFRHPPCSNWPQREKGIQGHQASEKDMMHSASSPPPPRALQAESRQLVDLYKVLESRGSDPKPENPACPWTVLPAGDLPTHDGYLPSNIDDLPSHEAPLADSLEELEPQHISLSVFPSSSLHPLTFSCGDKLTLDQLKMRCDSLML", "test": "cell-based or functional assay"}, "[2]": {"biological_target": "T1, IL12 receptors on H_IL12 Reporter 293 …", "test": "cell-based or functional assay", "remark": "listed apart in the source"}, "[3]": {"biological_target": "T2, GPC3 on liver cancer cells (HepG2, HuH-7) (UniProt P51654 25-554)", "T2 construct": "whole, on cells; also called GPC3 antigen", "test": "flow cytometry on HepG2 cells, Alexa Fluor 488 anti-human IgG; table under the plot prints no unit, unit taken from the axis Con.(nM)"}, "[4]": {"biological_target": "CD47 on CD47-transfected CHO-K1 cells (Homo sapiens (Human), UniProt Q08722 19-323)", "test": "flow cytometry on CD47-transfected CHO-K1 cells (CD38-/CD47+), anti-human IgG-FITC detection"}}}
{"binder": "B1", "values": [{"measurement": "EC50 on H_IL12 Reporter 293 cells (One-Glo signal; called binding affinity by the filing)", "setting": "[1]", "value": 30, "unit": "nM"}, {"measurement": "fold weaker than the IL12A and IL12B complex on H_IL12 Reporter 293 cells", "setting": "[1]", "value": "~500", "unit": "times"}, {"measurement": "EC50 (read off the curve), H_IL12 Reporter 293 cells, One-Glo signal, LCB-018 with IL12B after isotype pre-incubation (TIGIT free)", "setting": "[2]", "value": "~4", "unit": "nM"}, {"measurement": "EC50 (read off the curve), H_IL12 Reporter 293 cells, One-Glo signal, LCB-018 with IL12B after pre-block of TIGIT with 200 nM Tiragolumab", "setting": "[2]", "value": "~10", "unit": "nM"}]}
{"binder": "B2", "values": [{"measurement": "EC50", "setting": "[3]", "value": 0.529, "unit": "nM"}]}
{"binder": "B3", "values": [{"measurement": "binding result", "setting": "[4]", "value": "no binding"}]}
